Assay results published in paper PMC10397247.
One block for each binder: values may come before it.

Columns and labels:
4H2444-bH = biological target: T1, 4H2444-bH; assay: two-hybrid library CCNG1;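 further: natural log of median RNA to DNA barcode read ratio; higher means stronger binding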
T1 chain: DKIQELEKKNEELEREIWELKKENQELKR

4H2518-bH = biological target: T2, 4H2518-bH; assay: two-hybrid library CCNG1;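 further: natural log of median RNA to DNA barcode read ratio; higher means stronger binding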
T2 chain: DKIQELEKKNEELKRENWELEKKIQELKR

4H2585-bH = biological target: T3, 4H2585-bH; assay: two-hybrid library CCNG1;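 further: natural log of median RNA to DNA barcode read ratio; higher means stronger binding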
T3 chain: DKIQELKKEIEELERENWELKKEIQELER

4H264-bH = biological target: T4, 4H264-bH; assay: two-hybrid library CCNG1;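 further: natural log of median RNA to DNA barcode read ratio; higher means stronger binding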
T4 chain: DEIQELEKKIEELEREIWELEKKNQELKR

4H2760-bH = biological target: T5, 4H2760-bH; assay: two-hybrid library CCNG1
T5 chain: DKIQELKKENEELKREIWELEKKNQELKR

4H2859-bH = biological target: T6, 4H2859-bH; assay: two-hybrid library CCNG1
T6 chain: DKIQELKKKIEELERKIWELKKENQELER

4H2931-bH = biological target: T7, 4H2931-bH; assay: two-hybrid library CCNG1
T7 chain: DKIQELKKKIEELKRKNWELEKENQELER

4H3041-bH = biological target: T8, 4H3041-bH; assay: two-hybrid library CCNG1
T8 chain: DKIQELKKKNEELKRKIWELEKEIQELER

4H3297-bH = biological target: T9, 4H3297-bH; assay: two-hybrid library CCNG1
T9 chain: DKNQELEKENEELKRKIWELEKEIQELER

4H3364-bH = biological target: T10, 4H3364-bH; assay: two-hybrid library CCNG1
T10 chain: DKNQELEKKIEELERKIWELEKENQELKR

4H3381-bH = biological target: T11, 4H3381-bH; assay: two-hybrid library CCNG1
T11 chain: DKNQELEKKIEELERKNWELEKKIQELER

4H349-bH = biological target: T12, 4H349-bH; assay: two-hybrid library CCNG1
T12 chain: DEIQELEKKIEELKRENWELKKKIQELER

4H56-bH = biological target: T13, 4H56-bH; assay: two-hybrid library CCNG1
T13 chain: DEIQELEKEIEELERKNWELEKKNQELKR

4H730-bH = biological target: T14, 4H730-bH; assay: two-hybrid library CCNG1
T14 chain: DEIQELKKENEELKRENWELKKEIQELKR

4H796-bH = biological target: T15, 4H796-bH; assay: two-hybrid library CCNG1
T15 chain: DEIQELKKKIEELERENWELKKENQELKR

4H932-bH = biological target: T16, 4H932-bH; assay: two-hybrid library CCNG1
T16 chain: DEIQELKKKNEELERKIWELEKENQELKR

4H949-bH = biological target: T17, 4H949-bH; assay: two-hybrid library CCNG1
T17 chain: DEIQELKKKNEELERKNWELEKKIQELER

4H3427-bN = biological target: T18, 4H3427-bN; assay: two-hybrid library CCNG1
T18 chain: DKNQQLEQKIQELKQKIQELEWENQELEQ

4H346-bN = biological target: T19, 4H346-bN; assay: two-hybrid library CCNG1
T19 chain: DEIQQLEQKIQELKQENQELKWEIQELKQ

4H3782-bN = biological target: T20, 4H3782-bN; assay: two-hybrid library CCNG1
T20 chain: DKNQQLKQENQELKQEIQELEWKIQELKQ

4H3855-bN = biological target: T21, 4H3855-bN; assay: two-hybrid library CCNG1
T21 chain: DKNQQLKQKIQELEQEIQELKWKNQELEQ

4H3926-bN = biological target: T22, 4H3926-bN; assay: two-hybrid library CCNG1
T22 chain: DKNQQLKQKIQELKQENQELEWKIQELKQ

4H4001-bN = biological target: T23, 4H4001-bN; assay: two-hybrid library CCNG1
T23 chain: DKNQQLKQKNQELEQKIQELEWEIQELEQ

4H4073-bN = biological target: T24, 4H4073-bN; assay: two-hybrid library CCNG1
T24 chain: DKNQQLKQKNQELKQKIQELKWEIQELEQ

4H454-bN = biological target: T25, 4H454-bN; assay: two-hybrid library CCNG1
T25 chain: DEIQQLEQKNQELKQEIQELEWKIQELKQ

4H457-bN = biological target: T26, 4H457-bN; assay: two-hybrid library CCNG1
T26 chain: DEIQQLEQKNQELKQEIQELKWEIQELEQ

4H568-bN = biological target: T27, 4H568-bN; assay: two-hybrid library CCNG1
T27 chain: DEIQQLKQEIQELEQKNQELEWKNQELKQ

4H575-bN = biological target: T28, 4H575-bN; assay: two-hybrid library CCNG1
T28 chain: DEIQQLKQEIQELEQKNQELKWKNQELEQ

4H607-bN = biological target: T29, 4H607-bN; assay: two-hybrid library CCNG1
T29 chain: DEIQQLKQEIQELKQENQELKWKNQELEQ

4H683-bN = biological target: T30, 4H683-bN; assay: two-hybrid library CCNG1
T30 chain: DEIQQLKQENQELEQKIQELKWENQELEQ

4H687-bN = biological target: T31, 4H687-bN; assay: two-hybrid library CCNG1
T31 chain: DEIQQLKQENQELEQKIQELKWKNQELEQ

4H717-bA = biological target: T32, 4H717-bA; assay: two-hybrid library CCNG1
T32 chain: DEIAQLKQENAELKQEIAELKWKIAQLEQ

4H717-bN = biological target: T33, 4H717-bN; assay: two-hybrid library CCNG1
T33 chain: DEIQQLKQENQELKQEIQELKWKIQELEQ

4H72-bN = biological target: T34, 4H72-bN; assay: two-hybrid library CCNG1
T34 chain: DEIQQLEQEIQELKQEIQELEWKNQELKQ

4H754-bN = biological target: T35, 4H754-bN; assay: two-hybrid library CCNG1
T35 chain: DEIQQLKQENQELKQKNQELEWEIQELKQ

4H780-bN = biological target: T36, 4H780-bN; assay: two-hybrid library CCNG1
T36 chain: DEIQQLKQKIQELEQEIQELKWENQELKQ

4H797-bN = biological target: T37, 4H797-bN; assay: two-hybrid library CCNG1
T37 chain: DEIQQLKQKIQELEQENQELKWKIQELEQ

4H855-bN = biological target: T38, 4H855-bN; assay: two-hybrid library CCNG1
T38 chain: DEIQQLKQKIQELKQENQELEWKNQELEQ

4H883-bN = biological target: T39, 4H883-bN; assay: two-hybrid library CCNG1
T39 chain: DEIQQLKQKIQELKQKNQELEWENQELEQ

4H908-bN = biological target: T40, 4H908-bN; assay: two-hybrid library CCNG1
T40 chain: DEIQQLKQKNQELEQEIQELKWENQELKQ

4H918-bN = biological target: T41, 4H918-bN; assay: two-hybrid library CCNG1
T41 chain: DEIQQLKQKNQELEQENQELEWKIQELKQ

4H953-bN = biological target: T42, 4H953-bN; assay: two-hybrid library CCNG1
T42 chain: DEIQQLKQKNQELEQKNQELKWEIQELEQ

4H967-bN = biological target: T43, 4H967-bN; assay: two-hybrid library CCNG1
T43 chain: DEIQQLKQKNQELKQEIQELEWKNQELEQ

4H968-bN = biological target: T44, 4H968-bN; assay: two-hybrid library CCNG1
T44 chain: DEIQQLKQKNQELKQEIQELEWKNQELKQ

O13 = biological target: T45, O13; assay: two-hybrid library CCNG1
T45 chain: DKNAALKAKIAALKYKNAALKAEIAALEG

4H56-bN = biological target: T46, 4H56-bN; assay: two-hybrid library CCNG1
T46 chain: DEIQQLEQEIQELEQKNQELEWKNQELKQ

4H730-bN = biological target: T47, 4H730-bN; assay: two-hybrid library CCNG1
T47 chain: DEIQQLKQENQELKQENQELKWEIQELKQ

4H796-bN = biological target: T48, 4H796-bN; assay: two-hybrid library CCNG1
T48 chain: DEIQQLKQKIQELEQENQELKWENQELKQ

4H932-bN = biological target: T49, 4H932-bN; assay: two-hybrid library CCNG1
T49 chain: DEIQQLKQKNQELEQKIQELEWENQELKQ

4H949-bN = biological target: T50, 4H949-bN; assay: two-hybrid library CCNG1
T50 chain: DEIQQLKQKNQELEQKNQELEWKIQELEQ

P8A-bN = biological target: T51, P8A-bN; assay: two-hybrid library CCNG1
T51 chain: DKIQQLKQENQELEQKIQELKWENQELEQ

4H363-bA = biological target: T52, 4H363-bA; assay: two-hybrid library CCNG1
T52 chain: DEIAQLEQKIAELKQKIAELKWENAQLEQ

4H3907-bA = biological target: T53, 4H3907-bA; assay: two-hybrid library CCNG1
T53 chain: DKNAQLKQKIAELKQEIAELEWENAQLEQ

4H3961-bA = biological target: T54, 4H3961-bA; assay: two-hybrid library CCNG1
T54 chain: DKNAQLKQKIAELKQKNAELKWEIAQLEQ

4H470-bA = biological target: T55, 4H470-bA; assay: two-hybrid library CCNG1
T55 chain: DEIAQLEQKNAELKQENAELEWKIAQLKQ

O15 = biological target: T56, O15; assay: two-hybrid library CC0; conditions: mean of both orientations
T56 chain: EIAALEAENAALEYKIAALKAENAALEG

O16 = biological target: T57, O16; assay: two-hybrid library CC0; conditions: mean of both orientations
T57 chain: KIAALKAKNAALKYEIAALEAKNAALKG

O2 = biological target: T58, O2; assay: two-hybrid library CC0; conditions: mean of both orientations
T58 chain: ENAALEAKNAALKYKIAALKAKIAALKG

O3 = biological target: T59, O3; assay: two-hybrid library CC0; conditions: mean of both orientations
T59 chain: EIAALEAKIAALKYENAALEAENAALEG

O4 = biological target: T60, O4; assay: two-hybrid library CC0; conditions: mean of both orientations
T60 chain: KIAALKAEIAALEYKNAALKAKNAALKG

O5 = biological target: T61, O5; assay: two-hybrid library CC0; conditions: mean of both orientations
T61 chain: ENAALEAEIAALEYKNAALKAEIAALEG

O6 = biological target: T62, O6; assay: two-hybrid library CC0; conditions: mean of both orientations
T62 chain: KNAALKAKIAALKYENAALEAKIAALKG

O7 = biological target: T63, O7; assay: two-hybrid library CC0; conditions: mean of both orientations
T63 chain: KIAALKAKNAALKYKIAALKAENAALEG

O8 = biological target: T64, O8; assay: two-hybrid library CC0; conditions: mean of both orientations
T64 chain: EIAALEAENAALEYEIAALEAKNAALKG

O9 = biological target: T65, O9; assay: two-hybrid library CC0; conditions: mean of both orientations
T65 chain: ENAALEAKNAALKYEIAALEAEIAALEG

Binder: DEIQQLEQEIQELEQKNQELEWKNQELKQ [4H56-bN]
- interaction score (4H56-bN): 0.863
- interaction score (4H730-bN): 0.387
- interaction score (4H796-bN): 0.00289
- interaction score (4H932-bN): -0.791
- interaction score (4H949-bN): -1.76
- interaction score (O13): -0.5
- interaction score (P8A-bN): -1.19

Binder: DEIAQLEQKIAELKQKIAELKWENAQLEQ [4H363-bA]
- interaction score (4H363-bA): 1.08
- interaction score (4H3907-bA): 1.32
- interaction score (4H3961-bA): 0.154
- interaction score (4H470-bA): -2.31

Binder: EIAALEAENAALEYKIAALKAENAALEG [O15]
- interaction score (O15): -2.64
- interaction score (O16): 1.2
- interaction score (O2): -2.7
- interaction score (O3): -2.8
- interaction score (O4): -2.54
- interaction score (O5): -2.15
- interaction score (O6): -2.79
- interaction score (O7): -1.87
- interaction score (O8): -2.41
- interaction score (O9): -2.72

Next, values leading:

- interaction score (4H2444-bH): 1.48
- interaction score (4H2518-bH): 0.571
- interaction score (4H2585-bH): 0.868
- interaction score (4H264-bH): -2.12
- interaction score (4H2760-bH): 0.592
- interaction score (4H2859-bH): 0.771
- interaction score (4H2931-bH): 0.0488
- interaction score (4H3041-bH): -0.0348
- interaction score (4H3297-bH): 0.285
- interaction score (4H3364-bH): 0.375
- interaction score (4H3381-bH): 0.313
- interaction score (4H349-bH): -0.694
- interaction score (4H56-bH): -0.284
- interaction score (4H730-bH): -0.91
- interaction score (4H796-bH): 0.0566
- interaction score (4H932-bH): 0.176
- interaction score (4H949-bH): -0.478
Binder: DKIQELEKKNEELEREIWELKKENQELKR [4H2444-bH]

- interaction score (4H3427-bN): -0.0454
- interaction score (4H346-bN): -2.04
- interaction score (4H3782-bN): -0.306
- interaction score (4H3855-bN): -0.838
- interaction score (4H3926-bN): -1.1
- interaction score (4H4001-bN): -1
- interaction score (4H4073-bN): -1.1
- interaction score (4H454-bN): -0.734
- interaction score (4H457-bN): -0.939
- interaction score (4H568-bN): -0.0377
- interaction score (4H575-bN): -1.57
- interaction score (4H607-bN): -0.874
- interaction score (4H683-bN): -2.33
- interaction score (4H687-bN): -0.849
- interaction score (4H717-bA): -0.117
- interaction score (4H717-bN): -0.704
- interaction score (4H72-bN): -1.54
- interaction score (4H754-bN): -1.39
- interaction score (4H780-bN): -1.3
- interaction score (4H797-bN): -0.295
- interaction score (4H855-bN): -0.804
- interaction score (4H883-bN): -1.75
- interaction score (4H908-bN): -0.725
- interaction score (4H918-bN): -1.53
- interaction score (4H953-bN): -0.667
- interaction score (4H967-bN): -1.07
- interaction score (4H968-bN): -1.97
- interaction score (O13): -2.44
Binder: DKNQQLEQKIQELKQKIQELEWENQELEQ [4H3427-bN]
